Data reported in patent publication US20200385438A1 (Stanford University, published 2020).
Numbering of substitutions follows the chain as printed.

T1: biotinylated recombinant BH3-tagged mIL-2 (mouse, UniProt P04351 21-169, biotinylated with BirA enzyme (on the tag))
T1 construct: Secreted by Hi5 insect cells and immobilized on an SA sensor chip for SPR; also called biotinylated mouse IL-2; biotinylated IL-2; not shown: BH3 tag
T1 sequence (looked up): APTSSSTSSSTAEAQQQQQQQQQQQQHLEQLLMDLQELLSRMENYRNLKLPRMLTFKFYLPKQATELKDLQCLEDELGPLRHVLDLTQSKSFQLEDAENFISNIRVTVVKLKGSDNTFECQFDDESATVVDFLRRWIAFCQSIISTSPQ

B1: WT (receptor)
CD25 (IL-2Rα) chain: ELCDDDPPEIPHATFKAMAYKEGTMLNCECKRGFRRIKSGSLYMLCTGNSSHSSWDNQCQCTSSATRNTTKQVTPQPEEQKERKTTEMQSPMQPVDQASLPGHCREPPPWENEATERIYHFVVGQMVYYQCVQGYRALHRGPAESVCKMTHGKTRWTQPQLICTGEMETSQFPGEEKPQASPEGRPESETSCLVTTTDFQIQTEMAATMETSIFTTE
notes: also called WT hCD25; wild-type human CD25
B2: B5 (receptor)
CD25 (IL-2Rα) chain: B1 CD25 (IL-2Rα) chain with M25I, N27V, E29D, L42A, I118R, H120W, K153Q
notes: also called B5 hCD25
B3: E8 (receptor)
CD25 (IL-2Rα) chain: B1 CD25 (IL-2Rα) chain with L2Q, M25V, N27Y, L42A, I118R, H120W
notes: also called E8 hCD25
B4: F5 (receptor)
CD25 (IL-2Rα) chain: B1 CD25 (IL-2Rα) chain with M25L, N27V, L42A, I118N, H120M, K153G
notes: also called F5 hCD25
B5: WT (receptor)
CD25 (IL-2Rα) chain: ELCLYDPPEVPNATFKALSYKNGTILNCECKRGFRRLKELVYMRCLGNSWSSNCQCTSNSHDKSRKQVTAQLEHQKEQQTTTDMQKPTQSMHQENLTGHCREPPPWKHEDSKRIYHFVEGQSVHYECIPGYKALQRGPAISICKMKCGKTGWTQPQLTCVDEREHHRFLASEESQGSRNSSPESETSCPITTTDFPQPTETTAMTETFVLTME
notes: also called WT mCD25; wild-type mouse CD25
B6: B4 (receptor)
CD25 (IL-2Rα) chain: B5 CD25 (IL-2Rα) chain with N27E, E29R, V41W, Y42I, M43V, N59T, I114E, H116T
notes: also called B4 mCD25

These binders were tested against T2, biotinylated recombinant BH3-tagged hIL-2 (human, UniProt P60568 21-153, biotinylated with BirA enzyme (on the tag)) (assay: SPR (Biacore T100), biotinylated hIL-2 immobilised on an SA chip, soluble CD25 flowed over).
T2 construct: Secreted by Hi5 insect cells and immobilized on an SA sensor chip for SPR; also called biotinylated human IL-2; biotinylated IL-2; not shown: BH3 tag
Source text: (§1) FIG. 4A-4B—Sequences and affinities of high affinity CD25 variants. DNA encoding high affinity variants was extracted after clone screens by yeast plasmid minipreps. Sequences for hCD25 (FIG. 4A) and mCD25 (FIG. 4B) clones are aligned with wild-type (WT) CD25. Residues are the same as WT except as noted, and the EAV sequence is not aligned to WT mCD25 due to differences between species. Consensus mutations for hCD25 are highlighted in blue, and deletions are marked by dashes. Affinity measurements for each clone were determined by surface plasmon resonance.
(§2) Surface plasmon resonance (FIG. 4). Sequences of high-affinity CD25 identified from the clone screens were determined by yeast miniprep (Zymo Research), and cloned into pAcBN vectors for expression in Hi5 cells. Soluble high-affinity CD25 proteins were purified by FPLC. Affinity was measured by surface plasmon resonance (Biacore T100), with biotinylated mouse or human IL-2 immobilized on a SA sensor chip (GE Healthcare). CD25 variants were flowed over the chip and the chip was regenerated between runs.

T2 sequence (P60568 21-153): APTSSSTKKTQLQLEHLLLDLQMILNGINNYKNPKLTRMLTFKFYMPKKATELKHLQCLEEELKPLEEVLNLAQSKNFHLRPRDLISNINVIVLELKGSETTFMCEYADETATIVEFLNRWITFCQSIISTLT

Kd | Binder
2 nM | B1
0.046 nM | B2
0.045 nM | B3
0.086 nM | B4

The binders below were run against T1, biotinylated recombinant BH3-tagged … (assay: SPR (Biacore T100), biotinylated mIL-2 immobilised on an SA chip, soluble CD25 flowed over).
Source text: as §1, §2

Kd | Binder
6.9 nM | B5
0.46 nM | B6
